Source: patent US11054428B2, “Inhalable nanosensors with volatile reporters and uses thereof” (Massachusetts Institute of Technology, priority 2018, dated 2021)

Experiments:
[1] = biological target: T1, neutrophil elastase (NE) (Mus musculus, UniProt Q3UP87); assay: Mechanistic study: NE inhibitor given before nanosensor in infected mice, breath signal; assay type: in vivo; settings: 5 mg/kg intratracheal, 15 min before nanosensor, infected mice (FIG. 12)
T1 construct: from tissue; host or cells: lungs of CD-1 mice, healthy or infected with P. aeruginosa PAO1 (homogenates ex vivo, or lung in vivo)
T1 sequence (Q3UP87 27-265): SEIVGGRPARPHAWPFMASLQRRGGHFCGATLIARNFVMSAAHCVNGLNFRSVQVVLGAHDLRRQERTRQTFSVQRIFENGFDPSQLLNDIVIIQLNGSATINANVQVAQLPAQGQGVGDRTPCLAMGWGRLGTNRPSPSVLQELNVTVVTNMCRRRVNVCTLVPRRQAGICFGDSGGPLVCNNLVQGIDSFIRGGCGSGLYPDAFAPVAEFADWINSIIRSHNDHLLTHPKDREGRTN

[2] = biological target: T2, lung homogenates (neutrophil elastase) (Mus musculus, UniProt Q3UP87); assay: Ex vivo reporter release from nanosensors mixed with infected and healthy lung homogenates; set-up: species or system CD-1 mice; settings: 24 h post-inoculation with P. aeruginosa PAO1 (FIG. 3C)
T2 construct: from tissue; host or cells: lungs of CD-1 mice, healthy or infected with P. aeruginosa PAO1 (homogenates ex vivo, or lung in vivo)
T2 sequence (Q3UP87 27-265): T1 sequence (Q3UP87 27-265)
Method: Ultimately, the goal was to administer nanosensors into the lungs of mouse models of bacterial pneumonia to test for measurable reporter levels in the breath. Prior to direct administration into animal infection models, nanosensors were mixed ex vivo with infected and healthy lung homogenates. Bacterial pneumonia was established in CD-1 mice by intratracheal injection of 1.5×10^6 cfu Pseudomonas aeruginosa strain PAO1 (FIG. 3A). At 24 h post-inoculation, the time at which mice were euthanized and lung homogenates were prepared, infected lung homogenates had ˜22-fold greater neutrophil elastase concentration than healthy lung homogenates (FIG. 3B and FIG. 7). […] When mixed with nanosensors, infected lung homogenates triggered 5-fold faster reporter release compared to healthy lung homogenates (FIG. 3C).

[3] = biological target: T1, neutrophil elastase (NE); assay type: in vivo, mice
Method: With confirmation that infected lungs trigger greater reporter release and at detectable levels, nanosensors were then tested in acute pneumonia mouse models. […] Infected-7 and Infected-12, which have high initial reporter levels, have nanosensors predominantly in the airway. […] Reporters released from the sensor in the airways are expected to be expired in the breath more rapidly than free reporters deeper in the lung as the tidal volume is only a fraction of the total volume of the lung. […] In fact, infected breath samples at 16 min (18 min post-injection) have 3-fold higher mean reporter levels than breath samples from healthy controls (p=0.0035) (FIG. 4E and FIG. 6, right).
Therefore, subsequent studies focused on nanosensors with pentafluoropropylamine or heptafluoropropylamine reporters. […] Breath signal was reduced by ˜70% due to inhibitor administration, confirming the role of NE in releasing reporters in vivo to generate breath signal (FIG. 12).

Row | Compound | reduction of breath signal [1] | reporter release rate, infected vs healthy lung homogenates [2] | breath signal, infected vs healthy mice ([3]; 10, 20 and 30 min after administration, low and high doses (FIGS. 10A-10B)) | dose dependence of breath signal ([3]; 10 vs 100 μM doses) | AUROC for identifying infected mice by breath signal ([3]; 10 min, low dose (10 μM), p=0.0062) | mean reporter levels in breath, infected vs healthy controls ([3]; 16 min timepoint (18 min post-injection), p=0.0035) | reporter levels in breath, infected vs healthy (2-way ANOVA) ([3]; 20 min breath collection, p<0.05) | duration of SNR >1.0 relative to unattached peptide substrate ([3]; FIG. 11B) | reporter levels in breath, infected mice vs healthy controls after convergence ([3]; after first 14 min of breath collection (FIG. 4B)) | time to disease-distinguishing reporter signal in the breath ([3]; after inhalation) | earliest time of perfect distinction between mice with and without bacterial pneumonia ([3]; after nanosensor inhalation) | breath signal vs peptide substrate unattached to scaffold ([3]; infected mice (FIG. 11A)) | timepoint of maximum effect size of reporter levels ([3]; infected vs healthy (FIG. 4D)) | detectability of reporter levels in breath ([3]; intratracheal instillation, 10 μM equivalent peptide dose)
1 | CC(C)(C)C(=O)Oc1ccc(S(=O)(=O)Nc2ccccc2C(=O)NCC(=O)O)cc1 [sivelestat] | ~70% | – | – | – | – | – | – | – | – | – | – | – | – | –
2 | nanosensor: NE peptide substrate Nle(O-Bzl)-Met(O)2-Oic-Abu with C-terminal PFC reporter, conjugated via CKKK-PEG4 linker to 40 kDa 8-arm PEG; pentafluoropropylamine reporter in vivo (CKKKXXXX; not fully specified; non-natural residues) | – | 5 fold | significantly higher | dose-dependent | 1.0 | 3 fold | significantly greater | ~3 × | ~3 fold | ≤ 20 min | ≥ 12 min | higher breath signal than peptide substrates | 16 min | detectable
